According to patent US20180118841A1 (published 2018):

T1: CTLA-4 (BMS, Orencia) (human)
T1 chain: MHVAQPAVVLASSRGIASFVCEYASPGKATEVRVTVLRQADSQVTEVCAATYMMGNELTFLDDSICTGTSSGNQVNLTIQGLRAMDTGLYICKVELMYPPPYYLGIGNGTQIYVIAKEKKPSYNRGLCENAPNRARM

B1: anti-CD137 antibody 1204/1205 (antibody, IgG1, V domains shown)
VH: EVQLLESGGGLVQPGGSLRLSCAASGFTFSSYYMGWVRQAPGKGLEWVSGIGSYYGYTGYADSVKGRFTISRDNSKNTLYLQMNSLRAEDTAVYYCARAYYDYNYYYAYFDYWGQGTLVTVSS
VL: DIQMTQSPSSLSASVGDRVTITCRASQSISSYLNWYQQKPGKAPKLLIYAASSLQSGVPSRFSGSGSGTDFTLTISSLQPEDFATYYCQQSVPHYPFTFGQGTKLEIK
notes: Produced as IgG; IgG1 format stated for the T cell assay
B2: bispecific OX40/CTLA-4 molecule 1526/1585 (bispecific antibody, human IgG1, kappa)
heavy: not shown
light: DIQMTQSPSSLSASVGDRVTITCRASQSISSYLNWYQQKPGKAPKLLIYAASSLQSGVPSRFSGSGSGTDFTLTISSLQPEDFATYYCQQYGSDSLLTFGQGTKLEIKRTVAAPSVFIFPPSDEQLKSGTASVVCLLNNFYPREAKVQWKVDNALQSGNSQESVTEQDSKDSTYSLSSTLTLSKADYEKHKVYACEVTHQGLSSPVTKSFNRGECSGGGGSGGGGSAPLKIQAYFNETADLPCQFANSQNLSLSELVVFWQDQENLVLNEVYLGKERFDSVDSKYMGRTSFDSDSWTLRLHNLQIKDKGRYQCIIHHKKPTGMINIHQMNSELSVLA

Tests used:
[1] = target: CD137 on primary human CD8+ T cells (human, UniProt Q07011 24-255); test: cell-based or functional assay
CD137 on primary human CD8+ T cells, sequence (Q07011 24-255 limits assumed): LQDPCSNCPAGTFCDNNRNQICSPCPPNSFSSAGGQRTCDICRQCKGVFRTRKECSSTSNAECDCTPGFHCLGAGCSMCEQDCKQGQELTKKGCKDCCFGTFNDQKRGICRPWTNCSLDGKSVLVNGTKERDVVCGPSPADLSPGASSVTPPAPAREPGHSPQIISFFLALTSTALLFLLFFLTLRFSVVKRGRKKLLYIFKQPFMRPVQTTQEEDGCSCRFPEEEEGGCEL

[2] = target: T2, CD137 human/mouse chimera 1554 (human; mouse, UniProt P20334 96-159, limits assumed); test: FACS, 293-F transfectants; MFI/isotype, normalized to full-length CD137
T2 construct: domain: 3B, 4A and 4B; On 293-F cells; Human ranges derived from the printed mouse range; also called 1411
T2 sequence (P20334 other isoform, or with tags, fused parts or gaps mutant limits assumed): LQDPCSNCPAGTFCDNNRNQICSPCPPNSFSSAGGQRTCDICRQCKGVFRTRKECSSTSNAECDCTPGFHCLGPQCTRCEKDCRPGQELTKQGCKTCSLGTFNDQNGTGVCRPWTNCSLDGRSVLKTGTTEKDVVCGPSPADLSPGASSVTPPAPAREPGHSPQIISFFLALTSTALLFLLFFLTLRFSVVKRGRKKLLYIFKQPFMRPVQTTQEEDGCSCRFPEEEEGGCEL

CTLA-4 (BMS, Orencia) = target: T1, CTLA-4 (BMS, Orencia); test: cell-based or functional assay

Binder	Mean IFN-γ (pg/ml), CD8+ T cell assay [1] [pg/mL]	relative binding [2]	Mean IL-2 level (pg/ml) induced at 1.5 nM (CTLA-4 (BMS, Orencia)) [pg/mL]
B1	64400	0.73	–
B2	–	–	3200
